Assay: soluble fraction after stress (log2 fold change); higher = more stays soluble; pooled small domains, quantitative proteomics
Settings: stress: pH 4
Outline: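 High-throughput quantitative proteomics was run on pooled custom libraries of small protein domains following pH 4 stress. Fold changes are on a log2 scale; higher values mean more of a domain remained soluble. The fold change in soluble amount is taken as a measure of aggregation propensity.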

“HMLEDYFKEEEYTEVLKIPKEYIKGFQYYLIEDAEFVNALRAKNKTMTLFLAKKLASDYIEIIRREQ” and “HMNLLDYTTLYVTSDGKSVSFGIAGKEIPVSYIAQEAPGTVVIDDTIRIPRKYDMEYILKRFNES” are within 0.2 log units of each other in “soluble fraction (log2)” value: -1.31 for the first, -1.33 for the second.

First: HMHAGMKSWTIQYEKSPIYGSFLMYKDGNIYIQKEDNVVVHFPLDRFSQNDQAILKSRIEKIDQINKSS
Second: HMARDDVIRLVQLSLDHLPAKYADALEWKYVEGLSTKEIAARLELGSEAAESLLARARRAFKNDFQEIFES
The “soluble fraction (log2)” value of the first is higher: -0.0137 for the first, -0.47 for the second.

Compared with “HMDTKLFNYGVGKHAYISWNEGGKRTAYIGFGNDGADVLTINNVKQGGSLGIYKDKITLNSQTVLTD”, “HMSVPVNAPMPGTILDIKVKAGAAVKAGDVVMILEAMKMENEISAPQDGTIASIDVRKGDTVNSGDVLYTM” is higher in “soluble fraction (log2)” value: -0.381 for the first, -0.00195 for the second.

“HMKKTITISNYINVRDFATMSELPVNSILSVLMKNGIFVSLNEKIDFDTAWLVGSELGLEVKQKQG” and “HMLEQLTPRELKVLQALAQGRQNKEIAAQLVISERTVKFHVSAILSKLNVGNRTEAVTVAAQRGLISL” are within 0.2 log units of each other in “soluble fraction (log2)” value: -0.818 for the first, -0.729 for the second.

Compared with “HMALQDKYKQLVDTATASGVANLQVREQDGVLYIDGEAPSGSVKDQLWDIYGKIDPNFLSGDVVMNINV”, “HMKTGTVQDFIAKYGMSSKSPSSWFNSLTQIQKAEAKALKAQSGLTWNEWYEKNIYNGDGSNL” is higher in “soluble fraction (log2)” value: -1.12 for the first, -0.119 for the second.

Going from “HMASPTKQLVLEALRASGQPMSSMELSAQIGVSRATAQRYLSTLASAGEVKIQLRYGTTGRPEQEFLAIE” to “HMETDNEKVRTAFQNGLAAYREQDWDRAEAAFGAVLAEMPEDRPSLVYLERIAHLRKKAPPGAWDGVWI”, the “soluble fraction (log2)” value falls from 0.22 to -1.07.

First: HMDRWTPLIVAVLIEGSHRFGELRSAIGGITPKVLTETLRSMERDGLVTRDQVPGVPPRVDYALTPLG
Second: HMHSRTWTSADGVKTFEGELQSYDAASGKVSVILPNHKRITFKQEKLSADDIAWLEKNGNRP
The “soluble fraction (log2)” value of the first is lower: -0.434 for the first, 0.218 for the second.

“HMDDDDPDQEIAQYYEKLRAMNPDEETKQKLSDEINKLSKMMYSSQEAMVSRNYLDTVFSLPWHQF” and “HMEYTVNHYPEKHRFEVVEDGLTAYVEYRLRGDALDIIHTIVPKNLEGRGIAATLVETAYKYAKEQ” are within 0.2 log units of each other in “soluble fraction (log2)” value: -1.37 for the first, -1.35 for the second.

Going from “HMKILALETSAKAVSAAVSENGRILASGYQDTGLTHSRTLMPIVEHILKNTDLKLSDMDAIAVAVGPG” to “HMSDKEDIDKYLLTYGDLLFNRTNSSEWVGKTAIYRGEVSAIYAGYLIRIRSFLDAEYLNSVMNSKYA”, the “soluble fraction (log2)” value falls from 0.22 to -0.485.

“HMATQMSSARRGIATDEMKQVAKDEDVTLDWLLPKIAIGSIIIPSNNVRPQKIHNVGIGKGMKTKVN” and “HMSENPLTSREIEIVQLLANGKTTKSIAEELHLSNGTIRNYVSIVLDKLNVSNRIEAIRKALDKGWL” are within 0.2 log units of each other in “soluble fraction (log2)” value: -0.246 for the first, -0.0724 for the second.

First: HMFADLNPDENYGQVYIRTNTIDNLYQTLLDNKTRIHPNGLLELKPWGQKEFSILDPDKNLLTFGES
Second: HMRSNIYTEEKLWTVLQDFFQENRYLTISLMRMKFGLSRHMAQKWIDHFIAKGLLVKDGTPRSPIYFLND
The “soluble fraction (log2)” value of the first is higher: -0.317 for the first, -0.538 for the second.

Compared with “HMYGTQTVNRGAVQPGMLVKHKDSTWTASANARGRLYLHRGVEMTYTRDLLVEVYLNGLGNGL”, “HMTSLVRTSNLDGFEPLARSIGVDPVMELMRFGIPPDALIRENMFISFIGFIRLLEHTALAG” is higher in “soluble fraction (log2)” value: -0.342 for the first, 0.206 for the second.

First: HMSAGPQGRTPREDELTVGTKVYVSRVGASGVVSSDVSRGKVVVQVGALRLTAAVSELLLLDG
Second: HMYVEVPNFIGVPLVKVQSELASLGLVFNKSVVYQTSPYLKGNILDQRPLPGEVVPLNTEMSFTVSSGPA
The “soluble fraction (log2)” value of the first is higher: -0.472 for the first, -0.686 for the second.

Compared with “HMSQTPDLQQERANLGDNADARIEAVDLWANKFFPEEHADAILQIGQTAKGIEALEFIMSKV”, “HMYEDSNQSLNFFAIKFIKEKNIKISQETTNLIVERARGDRGNLINELQKLEALSLTRKKITQEDVFNLTN” is higher in “soluble fraction (log2)” value: -0.345 for the first, 0.22 for the second.

Going from “HMTALSIGTVVRFTGDRHYISSTGDTGYPASPGLAKITSINPGSKHPYHLIHIDNTSNVYGWVNKQDIIT” to “HMHVVVIDKQGALSYQGKAITLLDLKNIVIDVPKETPFLIKADKDIHLQSFVEVLDLIKTAGFKKVSLQ”, the “soluble fraction (log2)” value falls from no less than 0.43 to -0.459.

Compared with “HMEPVQPVMYSEFIESVERGEVVEATIQGDKIIATDRSGNRYTVVGSAKDPQLVGQLLERNVAFKFVEE”, “HMKINYNEFLRRFLGEKEGDIIEMETGKRIGTHKGYWFHTIGQRKGLGLGGGPWFVIRKDIDENIIYVSHG” is higher in “soluble fraction (log2)” value: -0.971 for the first, -0.643 for the second.

First: HMVLSPAQVRRALMVSGLFTEARVARQLGVPMDLKQILRIILRNTPPQSAMARELESAIDEIESRNAMRD
Second: HMKTPAPRETILSLFRQTPDGFVSGERISDELGVSRTAVWKHIRNLRQAGYQIEAIPSRGYQLQQS
The “soluble fraction (log2)” value of the first is lower: -0.844 for the first, -0.0693 for the second.

First: HMGEIILVPDVKAQGVSDARYTLNQAGLDAVIADSSYNRNSPPGAVLEQMPAPGSKVKSGHAIYLIINTT
Second: HMGETDDDFRELEEFVEKTKFDKLGTFMYSKEEGTPAARLPEQIHGNTKKSRYNKIMSIQQKVSNEN
The “soluble fraction (log2)” value of the first is higher: 0.0604 for the first, -0.897 for the second.

Going from “HMEEPEYELLRQAVLALPEKYRLPIHLYYYEEYSVREIAEILQRKESAVQTQLQRGREKIRRSLTEKGVS” to “HMEAPPHEALSNREFQVLQLLSQGRSVTQIAHQLTLSANTISTYRARIFDKLGLHNPADLYAYAARHGLM”, the “soluble fraction (log2)” value rises from -0.941 to -0.0709.

Going from “HMWQPIKLDRGDWQNSLQVGDRVFVRGIPRPVEILSAVDEENNIEVLMGTMRAKIPVYQLDKPAENFIDTT” to “HMNKFADLAGNIIYNENGVEVFNFGKYKGQPVAEVFKKDIGYYGWIQNADFPRYTKKVFTAIQLKSK”, the “soluble fraction (log2)” value rises from -0.711 to -0.0985.

“HMKIPQFAVIKQYLEQQIKTAQWAPGRQIPTEQSLADTFSVSRMTARRAVQQLADAGLLERTQGSGTFVAD” and “HMTASTLSYSKFNEQVVQNQVRKVTFQGEQVKGELISGQTFTTTVPANDTTLWPMLKAHNVDTAVTAA” are within 0.2 log units of each other in “soluble fraction (log2)” value: -0.053 for the first, 0.0376 for the second.

Compared with “HMDYGSLQRAIENQLEVRNYQKPKKFLTKIIQLMETIMVRHGVMVVGLTGTGKTTVIETLSRSMEQ”, “HMATEVEVPDVVGRQMALATQLLEARKLRVNVAEIYDEKTPPGQVVSQSPEAGSSVKEERVVTIYVSR” is higher in “soluble fraction (log2)” value: -0.529 for the first, 0.158 for the second.

Compared with “HMNIDKLVGSTGTVVRSVTPDTAGLVRVNDEDWRASAEEILYERDAIVVEGIEGVTLIVSKLS”, “HMRGHASVEIKRIVYKYKLTDQELAKITGMKASDFPIYHDHLQLILPKRYWARVLDALQNYEKEHES” is higher in “soluble fraction (log2)” value: -1.54 for the first, no less than 0.43 for the second.

First: HMEGNWGLWAKVPNRFAALTTDKDSALRRFKSKEDGEAWMASHGLKPERFDVLEIPADYKPA
Second: HMKSVLDDVAGLGPVRKKALLKAMGGFTRLRAASLDDILAVRAVPEEVAREVFAVLAQYNSVRNNDISE
The “soluble fraction (log2)” value of the first is lower: -0.0509 for the first, no less than 0.43 for the second.

“HMGYSSKISELLTKYNMNASELAQKVGVPPTTIYSIIKRDSKKADIEVLIKIAKLFNVPVEYF” and “HMEQVSDPALLERYAKEVVAASPKAVADYQAGNAKAFQALVGQMMKRTKGKGDPALIREILQKL” are within 0.2 log units of each other in “soluble fraction (log2)” value: 0.186 for the first, 0.143 for the second.

“HMPRQREVPDVSGWTEQHAKVYLEALGYRVKVIYLEVSSFDKGLVQETSPAKGSKVEEGDTIDLRVSNQE” and “HMHGSTAVVPQIKNMPYSEASVRLGANGLAIEINDSVYDRDMPPGTVIESWPKAGAVVKQGRQVYVTVTA” are within 0.2 log units of each other in “soluble fraction (log2)” value: 0.299 for the first, 0.218 for the second.

“HMHLTEAPLIKITYFEADQKKSGGQYITIINHLKKINEYENLLVLENGVKINIDDIYELESV” and “HMVTLPLLKRGHTGLPVKALQTLLVLRGMSVDVDGSFGEKTESAVRTFQTAAKILSDGEVGKDTWKALI” are within 0.2 log units of each other in “soluble fraction (log2)” value: -0.804 for the first, -0.911 for the second.

Going from “HMITTEEVLNRIRKKVDHPATIRELQKALSIADDDRHRFRRRIRTLVASGALVRIRGNRYGLPSK” to “HMQKYEDIINVTRERLQNKFYSQTVIPTDDDIYIWLDKVAILEEIKLSKEDRQMLFNLLKKEAT”, the “soluble fraction (log2)” value falls from 0.0429 to -0.879.

Compared with “HMITGREMDVLEALWSSEKPLVASDIPKMKPSLSISSVQLALRNLVKKKLVEVADIVYSGTVLSRSYRP”, “HMGRTKEEIFNILKERIVTLQYEPGKILNEIELSEEFEVSRTPIRTVFQQLEAVKLVSIVPRYGVQVA” is lower in “soluble fraction (log2)” value: -0.477 for the first, -1.11 for the second.

Compared with “HMEEDPIIIAQRFLNIFRQLHIFSEEKKESFNKMLLEQPAEIRGALRSLPGGGLLQDYIDDLESKA”, “HMPLTRSDVKRIQLWLMAHGYDIGSPDGVFGDKSNRAANAFLSQQGRSLETVTLGKLYDILEAN” is lower in “soluble fraction (log2)” value: -0.711 for the first, -0.941 for the second.

Going from “HMDKAALGQKLRQARLDKGYTQQSLSEKADIGEVYLSEIERGLKMPSMNLFIKLITALDISADYILR” to “HMGNWENVEKETTEAIMAVKNGEAVWVDLAPANRMIRQMQHELVEQYGLLSQSYGKEPKRRIRIFQNP”, the “soluble fraction (log2)” value rises from -1 to 0.0117.

Going from “HMPSTVRVPDVAETSLSEAKKTIEESGLEVGAIHKVNNDTVKKNHVIKTSPTIGSAKKEGSAIDIYVSKG” to “HMALEVPGIAKDKIYRIFGQLYERQQKWEDAIDYYNRAVFFTLSGTDMILYQEDLSRVKQKISL”, the “soluble fraction (log2)” value falls from 0.201 to -0.152.

“HMAESLHVTAAALFEGRAMLGIDGSRRLLRVGETSPEGVKLVSATAREAVIEIDGRRQTLAPGRDT” and “HMALTAEVLRSLIKHHGLGQSIQRTAKAVGLSASTVKKYFDRIAAANLTWQEAKSRTQEELIASLQPT” are within 0.2 log units of each other in “soluble fraction (log2)” value: 0.0589 for the first, 0.107 for the second.

First: HMQSVEELLDAIGDERLLHILLEADRKTLQIVVLKMMGYAPKEIGSHIGMPEQTVYTKLRRLREKIKKI
Second: HMKEIIFRGIGEFILDYKSLVIEFLNKNNYANLSMDAPVDEVNKAVANNMLNEDFVTELLLFQRRVE
The “soluble fraction (log2)” value of the first is higher: -1.07 for the first, -2.16 for the second.

“HMSLSEGVSADVVADVQARLMELGYMDEDDPDGNFSESTRIAVEHFQQQAGLPVTGTVDKATLDALNSPD” and “HMFPELEPDEQLIADLLRKTNNLQINIITVRTGLPINRVTALLFQMEMKGVVRPLAGGTYHLLV” are within 0.2 log units of each other in “soluble fraction (log2)” value: -0.231 for the first, -0.389 for the second.

First: HMVEKNALSEEIEGYVNKYGKDRSSLMPVLQAIQRKHSYINDFAQQEVARLLDIHPVEVFSVISFYSFLH
Second: HMDITTIIADVPGPKTQIKVDIKNTSLHIFGGMNFKKEIDIGDNKEIINIKYINGTLTVKLKT
The “soluble fraction (log2)” value of the first is lower: -1 for the first, -0.466 for the second.

Going from “HMYSYSGSVSNTHDVPVSVVLKDAEGVAIASWDLQAKQSLNISAKDIATSSGTIEITGDGVSETKTVTFTK” to “HMGNFGDLLKILLDEKELSMGELSKKSGIDKSTISRIANNKQKPNINHLEKMAIHLNINLEELLKASGYEF”, the “soluble fraction (log2)” value falls from -0.229 to -0.857.

Going from “HMEDAWMKKELWDAIATLPKKQRLVMTMRLTNNHSYKEIAAILGISENSAKVSYHHAVERLKEKFK” to “HMSSKRDQFIVLGQEILEKMFKNEGLEFSEKGLLAVMPNFEAESINDIYAKVGEGLISGWDVMKAVYPAY”, the “soluble fraction (log2)” value falls from 0.0668 to -0.841.

Source: the domain aggregation screens of Martell et al. (2025)
